Source: patent US20260049138A1 (Chugai, published 2026)
Where a chain is given by its changes, count along the chain named. Names and notes keep the numbering of the source.

B1: CE115HA000 K64Q one-arm antibody (antibody, human IgG1, kappa, L234A L235A, N297A, name in Kabat numbering)
heavy: QVQLVESGGGVVQPGRSLRLSCAASGFTFSNAWMHWVRQAPGKGLEWVAQIKAKSNNYATYYAESVQGRFTISRDDSKNSLYLQMNSLKTEDTAVYYCRYVHYGAYYGVDAWGQGTTVTVSSASTKGPSVFPLAPSSKSTSGGTAALGCLVKDYFPEPVTVSWNSGALTSGVHTFPAVLQSSGLYSLSSVVTVPSSSLGTQTYICNVNHKPSNTKVDKKVEPKSCDKTHTCPPCPAPEAAGGPSVFLFPPKPKDTLMISRTPEVTCVVVDVSHEDPEVKFNWYVDGVEVHNAKTKPREEQYASTYRVVSVLTVLHQDWLNGKEYKCKVSNKALPAPIEKTISKAKGQPREPQVYTLPPSRCELTKNQVSLSCAVKGFYPSDIAVEWESNGQPENNYKTTPPVLDSDGSFFLVSKLTVDKSRWQQGNVFSCSVMHEALHNHYTQKSLSLSPDYKDDDDK
chain: EPKSSDKTHTCPPCPAPELLGGPSVFLFPPKPKDTLMISRTPEVTCVVVDVSHEDPEVKFNWYVDGVEVHNAKTKPREEQYNSTYRVVSVLTVLHQDWLNGKEYKCKVSNKALPAPIEKTISKAKGQPREPQVCTLPPSRDELTKNQVSLWCLVKGFYPSDIAVEWESNGQPENNYKTTPPVLDSDGSFFLYSKLTVDKSRWQQGNVFSCSVMHEALHNRYTQKSLSLSP
light: DIVMTQSPLSLPVTPGEPASISCRSSQSLVHSNRNTYLHWYQQKPGQAPRLLIYKVSNRFSGVPDRFSGSGSGTDFTLKISRVEAEDVGVYYCGQGTQVPYTFGQGTKLEIKRTVAAPSVFIFPPSDEQLKSGTASVVCLLNNFYPREAKVQWKVDNALQSGNSQESVTEQDSKDSTYSLSSTLTLSKADYEKHKVYACEVTHQGLSSPVTKSFNRGEC
B2: CE115HA000 K64S one-arm antibody (antibody, human IgG1, kappa, L234A L235A, N297A, name in Kabat numbering)
heavy: B1 heavy with Q67S
chain: B1 chain
light: B1 light
B3: CE115HA000 K75R one-arm antibody (antibody, human IgG1, kappa, L234A L235A, N297A, name in Kabat numbering)
heavy: B1 heavy with Q67K, K78R
chain: B1 chain
light: B1 light
B4: CE115HA000 K75T one-arm antibody (antibody, human IgG1, kappa, L234A L235A, N297A, name in Kabat numbering)
heavy: B1 heavy with Q67K, K78T
chain: B1 chain
light: B1 light
B5: CE115HA000 L78I one-arm antibody (antibody, human IgG1, kappa, L234A L235A, N297A, name in Kabat numbering)
heavy: B1 heavy with Q67K, L81I
chain: B1 chain
light: B1 light
B6: CE115HA000 N31A one-arm antibody (antibody, human IgG1, kappa, L234A L235A, N297A, name in Kabat numbering)
heavy: B1 heavy with N31A, Q67K
chain: B1 chain
light: B1 light
notes: One-arm antibody: altered VH-pE22Hh, Kn010G3, GLS3000-kappa; The same holds for m64 to m321
B7: CE115HA000 N31D one-arm antibody (antibody, human IgG1, kappa, L234A L235A, N297A, name in Kabat numbering)
heavy: B1 heavy with N31D, Q67K
chain: B1 chain
light: B1 light
B8: CE115HA000 N31F one-arm antibody (antibody, human IgG1, kappa, L234A L235A, N297A, name in Kabat numbering)
heavy: B1 heavy with N31F, Q67K
chain: B1 chain
light: B1 light
B9: CE115HA000 N31G one-arm antibody (antibody, human IgG1, kappa, L234A L235A, N297A, name in Kabat numbering)
heavy: B1 heavy with N31G, Q67K
chain: B1 chain
light: B1 light
B10: CE115HA000 N31H one-arm antibody (antibody, human IgG1, kappa, L234A L235A, N297A, name in Kabat numbering)
heavy: B1 heavy with N31H, Q67K
chain: B1 chain
light: B1 light
B11: CE115HA000 N31I one-arm antibody (antibody, human IgG1, kappa, L234A L235A, N297A, name in Kabat numbering)
heavy: B1 heavy with N31I, Q67K
chain: B1 chain
light: B1 light
B12: CE115HA000 N31K one-arm antibody (antibody, human IgG1, kappa, L234A L235A, N297A, name in Kabat numbering)
heavy: B1 heavy with N31K, Q67K
chain: B1 chain
light: B1 light
B13: CE115HA000 N31Q one-arm antibody (antibody, human IgG1, kappa, L234A L235A, N297A, name in Kabat numbering)
heavy: B1 heavy with N31Q, Q67K
chain: B1 chain
light: B1 light
B14: CE115HA000 N31R one-arm antibody (antibody, human IgG1, kappa, L234A L235A, N297A, name in Kabat numbering)
heavy: B1 heavy with N31R, Q67K
chain: B1 chain
light: B1 light
B15: CE115HA000 N31S one-arm antibody (antibody, human IgG1, kappa, L234A L235A, N297A, name in Kabat numbering)
heavy: B1 heavy with N31S, Q67K
chain: B1 chain
light: B1 light
B16: CE115HA000 N31W one-arm antibody (antibody, human IgG1, kappa, L234A L235A, N297A, name in Kabat numbering)
heavy: B1 heavy with N31W, Q67K
chain: B1 chain
light: B1 light
B17: CE115HA000 N31Y one-arm antibody (antibody, human IgG1, kappa, L234A L235A, N297A, name in Kabat numbering)
heavy: B1 heavy with N31Y, Q67K
chain: B1 chain
light: B1 light
B18: CE115HA000 N53A one-arm antibody (antibody, human IgG1, kappa, L234A L235A, N297A, name in Kabat numbering)
heavy: B1 heavy with N56A, Q67K
chain: B1 chain
light: B1 light
B19: CE115HA000 N53D one-arm antibody (antibody, human IgG1, kappa, L234A L235A, N297A, name in Kabat numbering)
heavy: B1 heavy with N56D, Q67K
chain: B1 chain
light: B1 light
B20: CE115HA000 N53G one-arm antibody (antibody, human IgG1, kappa, L234A L235A, N297A, name in Kabat numbering)
heavy: B1 heavy with N56G, Q67K
chain: B1 chain
light: B1 light
B21: CE115HA000 N53H one-arm antibody (antibody, human IgG1, kappa, L234A L235A, N297A, name in Kabat numbering)
heavy: B1 heavy with N56H, Q67K
chain: B1 chain
light: B1 light
B22: CE115HA000 N53I one-arm antibody (antibody, human IgG1, kappa, L234A L235A, N297A, name in Kabat numbering)
heavy: B1 heavy with N56I, Q67K
chain: B1 chain
light: B1 light

Target: T1, CD3ε homodimer protein (human, UniProt P07766 23-126, limits assumed, sulfo-tag or biotin label in the ECL assays; amine-coupled to the chip in SPR)
T1 construct: also called human CD3ε homodimer protein; CD3 (CD3ε)
T1 sequence (P07766 23-126 limits assumed): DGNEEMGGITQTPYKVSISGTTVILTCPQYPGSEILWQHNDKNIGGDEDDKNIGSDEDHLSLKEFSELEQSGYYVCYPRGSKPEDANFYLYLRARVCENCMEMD
Assay: SPR Biacore T200; CD3ε homodimer on CM4 chip;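 further: Single-residue variant antibodies injected as analyte over CD3ε homodimer immobilized by amine coupling, run at 25 °C in HBS-EP+ buffer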
Protocol: An appropriate amount of CD3ε homodimer protein was immobilized onto Sensor chip CM4 (GE Healthcare Japan Corp.) by the amine coupling method. Then, the antibody having an appropriate concentration was injected thereto as an analyte and allowed to interact with the CD3ε homodimer protein on the sensor chip. Then, the sensor chip was regenerated by the injection of 10 mmol/L glycine-HCl (pH 1.5). The assay was conducted at 25° C., and HBS-EP+ (GE Healthcare Japan Corp.) was used as a running buffer. […] Each parameter was calculated using Biacore T200 Evaluation Software (GE Healthcare Japan Corp.).

Binder | ratio of amounts bound Z=Y/X (altered form / CE115HA000)
B1 | 0.89
B2 | 0.84
B3 | 1.01
B4 | 0.84
B5 | 1.34
B6 | 0.5
B7 | 0.37
B8 | 0.62
B9 | 0.39
B10 | 0.68
B11 | 0.81
B12 | 1.01
B13 | 0.49
B14 | 1.14
B15 | 0.81
B16 | 0.63
B17 | 0.64
B18 | 0.7
B19 | 0.39
B20 | 0.5
B21 | 0.76
B22 | 0.68
